In paper doi:10.1101/2025.05.13.653810, “Spatial control of secretory vesicle targeting by the Ync13–Rga7–Rng10 complex during cytokinesis” (bioRxiv, 2025) one finds Kd data, which are given here for one molecule.

The assay addresses T1, MBP-Ync13–6xHis (S. pombe, UniProt O13683 1-1237).
T1 construct: Ync13, the S. pombe homolog of Munc13/UNC-13; full-length cDNA between MBP-TEV-GGSGGS and the 6His tag of pET21a; MBP is followed by a TEV site and a GGSGGS linker; also called MBP-Ync13–6His; not shown: MBP, N-terminal, kept; His6, C-terminal, kept
T1 sequence (looked up): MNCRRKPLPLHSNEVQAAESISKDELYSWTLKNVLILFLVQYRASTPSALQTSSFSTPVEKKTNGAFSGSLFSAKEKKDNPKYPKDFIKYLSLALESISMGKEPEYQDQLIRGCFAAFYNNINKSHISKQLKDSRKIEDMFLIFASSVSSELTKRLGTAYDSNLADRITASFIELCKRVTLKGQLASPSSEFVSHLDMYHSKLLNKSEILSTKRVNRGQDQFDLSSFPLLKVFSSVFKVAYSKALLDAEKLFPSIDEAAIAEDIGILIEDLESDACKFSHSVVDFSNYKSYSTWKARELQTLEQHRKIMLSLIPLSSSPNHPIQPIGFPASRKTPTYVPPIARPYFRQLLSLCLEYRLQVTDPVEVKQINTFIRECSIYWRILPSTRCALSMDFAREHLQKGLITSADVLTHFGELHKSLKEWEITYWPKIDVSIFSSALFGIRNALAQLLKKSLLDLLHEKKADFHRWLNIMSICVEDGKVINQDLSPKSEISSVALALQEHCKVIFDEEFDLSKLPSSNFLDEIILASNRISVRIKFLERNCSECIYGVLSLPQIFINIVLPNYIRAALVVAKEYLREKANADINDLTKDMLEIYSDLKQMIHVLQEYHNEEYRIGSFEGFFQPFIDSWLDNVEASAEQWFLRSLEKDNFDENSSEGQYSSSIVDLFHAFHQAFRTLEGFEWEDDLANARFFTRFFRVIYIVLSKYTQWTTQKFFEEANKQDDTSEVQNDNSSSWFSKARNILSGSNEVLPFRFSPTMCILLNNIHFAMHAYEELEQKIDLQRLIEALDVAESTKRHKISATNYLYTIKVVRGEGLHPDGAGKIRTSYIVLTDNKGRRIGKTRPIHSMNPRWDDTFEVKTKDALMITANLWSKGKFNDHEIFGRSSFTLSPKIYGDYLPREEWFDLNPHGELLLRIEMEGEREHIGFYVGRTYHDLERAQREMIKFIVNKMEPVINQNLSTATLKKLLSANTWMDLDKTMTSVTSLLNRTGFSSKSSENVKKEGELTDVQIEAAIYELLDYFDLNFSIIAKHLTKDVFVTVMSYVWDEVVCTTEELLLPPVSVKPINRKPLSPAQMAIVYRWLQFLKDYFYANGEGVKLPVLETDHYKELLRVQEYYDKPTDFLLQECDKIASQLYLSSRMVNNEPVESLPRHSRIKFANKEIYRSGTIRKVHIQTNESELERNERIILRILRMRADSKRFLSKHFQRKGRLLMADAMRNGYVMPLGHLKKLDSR
Nature of the assay: supernatant depletion assay; Rga7–6xHis at 4 μM titrated with MBP-Ync13–6xHis immobilized on Cobalt beads; beads pelleted at 16,000 g, supernatants on Coomassie-stained SDS-PAGE, bound fraction fitted. The note with it: both partners purified.

B1: Rga7–6xHis (natural protein, S. pombe, UniProt O94466 1-695, looked up)
chain: MLSAPSSSTTPASPPTSPPNTTSSDDFAVLKEPKVEAILNSELGLAILNDRIKDYLLTCKELAGFFKKRSILEEESGKNLQKLAKSYLETFQSKHHSPQSFSASVITSMEIHEQLANHSLTLQKTLSAFSDQVIEFHKNAERKRKSIKEYAKKQENAYLEAVMQMDKSKSRFKGAETEYNRALDNKNTGDSQKKVGFFKPKSNAQLTKLEDEARLKAENAESDMHSKIENAQNVQKQLLCIHRPNYIKQFFSLQREIESSLIANYLRYTKLCESNTLLNGLTIRPQKPTPTNCGLQHALDNINANTDFVQYVLHASIKHEDNKNPTDASKTKIIQPPSSYGTGSSAGKTNPPVNPTIKVTAAIPSPLQNTNPAPSTFPNPSVASPAFPNSSTSNPSTAPASASPLASTLKPSTANDTNGSSSSSSSNPRTSSPLASNAENKPPVAQQSPPVLLPTLPPIQTTTIQTSREVAPPPSSINSNRAASPFRPTSVSPQPSSPTKSLLFGARLDAIILREHSNIPNIVMQCTSQVENFGLNLQGIYRVPSSSARVNMLRSQFENNPLLQLHTPEDYENDVHAVADLLKIFFRELREPLIPDNHQRDFIDAGNVEDESRRRDAVHRAINDLPDANYSTIRHLTIHLAKIKENSDVNKMSTNNLAIIWGPTIIKQATIPEISSFSRTIEILIDYCFTIFDYD
notes: Rga7, F-BAR protein and Rho2 GAP of S. pombe; full length, cloned into pET21a between the T7 tag and the 6His tag; also called Rga7–6His; not shown: His6, C-terminal, kept
Usually Kd stands for a measure of binding affinity in units of concentration. The low end stands for a tighter complex, the high end for a looser complex. B1 yielded a Kd of 10 µM.
